Data from patent publication US20230293638A1 (Eli Lilly, published 2023).
Numbered stars: 1 amine (or outer) side, 2 acyl side, 3 side chain; on linkers, the order of the positions; unused ones are H or OH. Square brackets hold non-standard residues; d marks the D form. Side chains are listed from the residue outwards. Ends that are not written are not given here. * marks the point of attachment. C20 diacid = O=C(O)CCCCCCCCCCCCCCCCCCC(=O)*; γGlu = O=C(O)[C@H](CCC(=O)[*:2])N[*:1]; AEEA = NCCOCCOCC(=O)O; Aib = CC(C)(N)C(=O)O

Target: human GLP-1 receptor (human, UniProt P43220 24-463)
Assay: cell-based or functional assay

Row | Binder | hGLPIR cAMP EC50 ratio
1 | YXEGTFTSDYSIXLDKKAQXAFIEYLIEGG (Aib2; αMeL13; K17((2-[2-(2-Amino-ethoxy)-ethoxy]-acetyl)2-(γGlu)-CO-(CH2)18-CO2H); Aib20; C-terminal NH2) [Peptide 62] | 0.463
2 | Y[Aib]EGTFTSDYSILLDKIAQ[Aib]AFIEYLIEGGPSSGAPPPK([AEEA-AEEA-γGlu-C20 diacid])-NH2 (N-terminus assumed; SMILES CC[C@H](C)[C@H](NC(=O)[C@H](CCCCN)NC(=O)[C@H](CC(=O)O)NC(=O)[C@H](CC(C)C)NC(=O)[C@H](CC(C)C)NC(=O)[C@@H](NC(=O)[C@H](CO)NC(=O)[C@H](Cc1ccc(O)cc1)NC(=O)[C@H](CC(=O)O)NC(=O)[C@H](CO)NC(=O)[C@@H](NC(=O)[C@H](Cc1ccccc1)NC(=O)[C@@H](NC(=O)CNC(=O)[C@H](CCC(=O)O)NC(=O)C(C)(C)NC(=O)[C@@H](N)Cc1ccc(O)cc1)[C@@H](C)O)[C@@H](C)O)[C@@H](C)CC)C(=O)N[C@@H](C)C(=O)N[C@@H](CCC(N)=O)C(=O)NC(C)(C)C(=O)N[C@@H](C)C(=O)N[C@@H](Cc1ccccc1)C(=O)N[C@H](C(=O)N[C@@H](CCC(=O)O)C(=O)N[C@@H](Cc1ccc(O)cc1)C(=O)N[C@@H](CC(C)C)C(=O)N[C@H](C(=O)N[C@@H](CCC(=O)O)C(=O)NCC(=O)NCC(=O)N1CCC[C@H]1C(=O)N[C@@H](CO)C(=O)N[C@@H](CO)C(=O)NCC(=O)N[C@@H](C)C(=O)N1CCC[C@H]1C(=O)N1CCC[C@H]1C(=O)N1CCC[C@H]1C(=O)N[C@@H](CCCCNC(=O)COCCOCCNC(=O)COCCOCCNC(=O)CC[C@H](NC(=O)CCCCCCCCCCCCCCCCCCC(=O)O)C(=O)O)C(N)=O)[C@@H](C)CC)[C@@H](C)CC) [Peptide 48] | 0.0966
3 | YXEGTFTSDYSIXLDTKAQXAFIEYLIEGG (Aib2; αMeL13; K17((2-[2-(2-Amino-ethoxy)-ethoxy]-acetyl)2-(γGlu)-CO-(CH2)18-CO2H); Aib20; C-terminal NH2) [Peptide 65] | 0.233
4 | YXEGTFTSDYSIXLDEKAQXAFIEYLIEGG (Aib2; αMeL13; K17((2-[2-(2-Amino-ethoxy)-ethoxy]-acetyl)2-(γGlu)-CO-(CH2)18-CO2H); Aib20; C-terminal NH2) [Peptide 63] | 0.386
5 | Y[Aib]EGTFTSDYSILLDKIAQ[Aib]AFIEYLIEGGPSSGAPPK([AEEA-AEEA-γGlu-C20 diacid])S-NH2 (N-terminus assumed; SMILES CC[C@H](C)[C@H](NC(=O)[C@H](CCCCN)NC(=O)[C@H](CC(=O)O)NC(=O)[C@H](CC(C)C)NC(=O)[C@H](CC(C)C)NC(=O)[C@@H](NC(=O)[C@H](CO)NC(=O)[C@H](Cc1ccc(O)cc1)NC(=O)[C@H](CC(=O)O)NC(=O)[C@H](CO)NC(=O)[C@@H](NC(=O)[C@H](Cc1ccccc1)NC(=O)[C@@H](NC(=O)CNC(=O)[C@H](CCC(=O)O)NC(=O)C(C)(C)NC(=O)[C@@H](N)Cc1ccc(O)cc1)[C@@H](C)O)[C@@H](C)O)[C@@H](C)CC)C(=O)N[C@@H](C)C(=O)N[C@@H](CCC(N)=O)C(=O)NC(C)(C)C(=O)N[C@@H](C)C(=O)N[C@@H](Cc1ccccc1)C(=O)N[C@H](C(=O)N[C@@H](CCC(=O)O)C(=O)N[C@@H](Cc1ccc(O)cc1)C(=O)N[C@@H](CC(C)C)C(=O)N[C@H](C(=O)N[C@@H](CCC(=O)O)C(=O)NCC(=O)NCC(=O)N1CCC[C@H]1C(=O)N[C@@H](CO)C(=O)N[C@@H](CO)C(=O)NCC(=O)N[C@@H](C)C(=O)N1CCC[C@H]1C(=O)N1CCC[C@H]1C(=O)N[C@@H](CCCCNC(=O)COCCOCCNC(=O)COCCOCCNC(=O)CC[C@H](NC(=O)CCCCCCCCCCCCCCCCCCC(=O)O)C(=O)O)C(=O)N[C@@H](CO)C(N)=O)[C@@H](C)CC)[C@@H](C)CC) [Peptide 47] | 0.089
6 | YXEGTFTSDYSIXLDSKAQXAFIEYLIEGG (Aib2; αMeL13; K17((2-[2-(2-Amino-ethoxy)-ethoxy]-acetyl)2-(γGlu)-CO-(CH2)18-CO2H); Aib20; C-terminal NH2) [Peptide 64] | 0.429
7 | Y[Aib]EGTFTSDYSILLDKK([AEEA-AEEA-γGlu-C20 diacid])AQ[Aib]AFIEYLIEGGPSSG-NH2 (N-terminus assumed; SMILES CC[C@H](C)[C@H](NC(=O)[C@H](CC(C)C)NC(=O)[C@H](Cc1ccc(O)cc1)NC(=O)[C@H](CCC(=O)O)NC(=O)[C@@H](NC(=O)[C@H](Cc1ccccc1)NC(=O)[C@H](C)NC(=O)C(C)(C)NC(=O)[C@H](CCC(N)=O)NC(=O)[C@H](C)NC(=O)[C@H](CCCCNC(=O)COCCOCCNC(=O)COCCOCCNC(=O)CC[C@H](NC(=O)CCCCCCCCCCCCCCCCCCC(=O)O)C(=O)O)NC(=O)[C@H](CCCCN)NC(=O)[C@H](CC(=O)O)NC(=O)[C@H](CC(C)C)NC(=O)[C@H](CC(C)C)NC(=O)[C@@H](NC(=O)[C@H](CO)NC(=O)[C@H](Cc1ccc(O)cc1)NC(=O)[C@H](CC(=O)O)NC(=O)[C@H](CO)NC(=O)[C@@H](NC(=O)[C@H](Cc1ccccc1)NC(=O)[C@@H](NC(=O)CNC(=O)[C@H](CCC(=O)O)NC(=O)C(C)(C)NC(=O)[C@@H](N)Cc1ccc(O)cc1)[C@@H](C)O)[C@@H](C)O)[C@@H](C)CC)[C@@H](C)CC)C(=O)N[C@@H](CCC(=O)O)C(=O)NCC(=O)NCC(=O)N1CCC[C@H]1C(=O)N[C@@H](CO)C(=O)N[C@@H](CO)C(=O)NCC(N)=O) [Peptide 50] | 0.675
8 | Y[Aib]EGTFTSDYSILLDKK([AEEA-AEEA-γGlu-C20 diacid])AQ[Aib]AFIEYLIEGG-NH2 (N-terminus assumed; SMILES CC[C@H](C)[C@H](NC(=O)[C@H](CC(C)C)NC(=O)[C@H](Cc1ccc(O)cc1)NC(=O)[C@H](CCC(=O)O)NC(=O)[C@@H](NC(=O)[C@H](Cc1ccccc1)NC(=O)[C@H](C)NC(=O)C(C)(C)NC(=O)[C@H](CCC(N)=O)NC(=O)[C@H](C)NC(=O)[C@H](CCCCNC(=O)COCCOCCNC(=O)COCCOCCNC(=O)CC[C@H](NC(=O)CCCCCCCCCCCCCCCCCCC(=O)O)C(=O)O)NC(=O)[C@H](CCCCN)NC(=O)[C@H](CC(=O)O)NC(=O)[C@H](CC(C)C)NC(=O)[C@H](CC(C)C)NC(=O)[C@@H](NC(=O)[C@H](CO)NC(=O)[C@H](Cc1ccc(O)cc1)NC(=O)[C@H](CC(=O)O)NC(=O)[C@H](CO)NC(=O)[C@@H](NC(=O)[C@H](Cc1ccccc1)NC(=O)[C@@H](NC(=O)CNC(=O)[C@H](CCC(=O)O)NC(=O)C(C)(C)NC(=O)[C@@H](N)Cc1ccc(O)cc1)[C@@H](C)O)[C@@H](C)O)[C@@H](C)CC)[C@@H](C)CC)C(=O)N[C@@H](CCC(=O)O)C(=O)NCC(=O)NCC(N)=O) [Peptide 51] | 0.426
9 | YXEGTFTSDYSIXLDSKAQXAFIEYLIEGGPSSGAPPPS (Aib2; αMeL13; K17((2-[2-(2-Amino-ethoxy)-ethoxy]-acetyl)2-(γGlu)-CO-(CH2)18-CO2H); Aib20; C-terminal NH2) [Peptide 52] | 0.514
10 | YXEGTFTSDYXILLDKKAQXAFIEYLIEGGPSSGAPPPS (Aib2; αMeS11; K17((2-[2-(2-Amino-ethoxy)-ethoxy]-acetyl)2-(γGlu)-CO-(CH2)18-CO2H); Aib20; C-terminal NH2) [Peptide 68] | 0.354
11 | YXEGTXTSDYSIXLDKKAQXAFIEYLIEGGPSSGAPPPS (Aib2; αMeF6; αMeL13; K17((2-[2-(2-Amino-ethoxy)-ethoxy]-acetyl)2-(γGlu)-CO-(CH2)18-CO2H); Aib20; C-terminal NH2) [Peptide 69] | 0.85
12 | YXEGTXTSDYSIXLDXKAQXEFIXYLIEGGPSSGAPPPS (Aib2; αMeF(2F)6; αMeL13; Orn16; K17((2-[2-(2-Amino-ethoxy)-ethoxy]-acetyl)2-(γGlu)-CO-(CH2)18-CO2H); Aib20; D-Glu24; C-terminal NH2) [Peptide 3] | 1.25
13 | YXEGTFTSDYSIXLDXKAQXAFIEYLIEGGPSSGAPPPS (Aib2; αMeL13; Aib16; K17((2-[2-(2-Amino-ethoxy)-ethoxy]-acetyl)2-(γGlu)-CO-(CH2)18-CO2H); Aib20; C-terminal NH2) [Peptide 60] | 0.237
14 | YXEGTFTSDYSIXLDEKAQXAFIEYLLEGGPSSGAPPPS (Aib2; αMeL13; K17((2-[2-(2-Amino-ethoxy)-ethoxy]-acetyl)2-(γGlu)-CO-(CH2)18-CO2H); Aib20; C-terminal NH2) [Peptide 66] | 0.255
